This experiment has as its target Kv4.2-YFP (mouse) (UniProt Q9Z0V2). The experiment is described as follows: FRET or BRET. For orientation: In BRET a luciferase serves as donor, and the signal depends on an acceptor being close.
UniProt Q9Z0V2, sequence (Q9Z0V2 whole entry): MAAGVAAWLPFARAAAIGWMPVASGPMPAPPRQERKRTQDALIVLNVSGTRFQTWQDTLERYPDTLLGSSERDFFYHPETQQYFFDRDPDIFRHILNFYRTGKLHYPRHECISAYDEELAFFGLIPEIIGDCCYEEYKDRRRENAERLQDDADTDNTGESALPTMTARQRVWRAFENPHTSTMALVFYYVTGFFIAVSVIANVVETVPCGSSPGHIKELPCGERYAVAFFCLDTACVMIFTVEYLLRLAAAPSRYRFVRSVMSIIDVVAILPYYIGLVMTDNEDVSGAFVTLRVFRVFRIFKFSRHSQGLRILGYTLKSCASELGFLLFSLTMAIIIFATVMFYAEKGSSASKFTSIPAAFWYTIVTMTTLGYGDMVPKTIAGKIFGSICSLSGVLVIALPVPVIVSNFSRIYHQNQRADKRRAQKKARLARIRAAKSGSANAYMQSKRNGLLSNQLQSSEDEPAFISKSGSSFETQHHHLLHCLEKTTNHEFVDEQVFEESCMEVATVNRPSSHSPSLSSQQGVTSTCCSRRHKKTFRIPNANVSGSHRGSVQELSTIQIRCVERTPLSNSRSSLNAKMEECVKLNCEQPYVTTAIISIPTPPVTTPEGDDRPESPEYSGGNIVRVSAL

What is called stoichiometry N is a count of units in the complex or per binding partner. The substance “KChIP3a-CFP (text) / KChIP2c-CFP (legend, methods) (from UniProt Q9JM59-3 1-220) (natural protein)” yielded an FRET efficiency of 11.2% and a stoichiometry N of 1.

The record behind these values is PMC10496648.
